# Measured values reported in IntAct's records for PubMed 23395900.
# B1: Structural maintenance of chromosomes protein 3 (Saccharomyces cerevisiae), P47037 (parent)
# chain: MYIKRVIIKGFKTYRNETIIDNFSPHQNVIIGSNGSGKSNFFAAIRFVLSDDYSNLKREERQGLIHQGSGGSVMSASVEIVFHDPDHSMILPSGVLSRGDDEVTIRRTVGLKKDDYQLNDRNVTKGDIVRMLETAGFSMNNPYNIVPQGKIVALTNAKDKERLQLLEDVVGAKSFEVKLKASLKKMEETEQKKIQINKEMGELNSKLSEMEQERKELEKYNELERNRKIYQFTLYDRELNEVINQMERLDGDYNNTVYSSEQYIQELDKREDMIDQVSKKLSSIEASLKIKNATDLQQAKLRESEISQKLTNVNVKIKDVQQQIESNEEQRNLDSATLKEIKSIIEQRKQKLSKILPRYQELTKEEAMYKLQLASLQQKQRDLILKKGEYARFKSKDERDTWIHSEIEELKSSIQNLNELESQLQMDRTSLRKQYSAIDEEIEELIDSINGPDTKGQLEDFDSELIHLKQKLSESLDTRKELWRKEQKLQTVLETLLSDVNQNQRNVNETMSRSLANGIINVKEITEKLKISPESVFGTLGELIKVNDKYKTCAEVIGGNSLFHIVVDTEETATLIMNELYRMKGGRVTFIPLNRLSLDSDVKFPSNTTTQIQFTPLIKKIKYEPRFEKAVKHVFGKTIVVKDLGQGLKLAKKHKLNAITLDGDRADKRGVLTGGYLDQHKRTRLESLKNLNESRSQHKKILEELDFVRNELNDIDTKIDQVNGNIRKVSNDRESVLTNIEVYRTSLNTKKNEKLILEESLNAIILKLEKLNTNRTFAQEKLNTFENDLLQEFDSELSKEEKERLESLTKEISAAHNKLNITSDALEGITTTIDSLNAELESKLIPQENDLESKMSEVGDAFIFGLQDELKELQLEKESVEKQHENAVLELGTVQREIESLIAEETNNKKLLEKANNQQRLLLKKLDNFQKSVEKTMIKKTTLVTRREELQQRIREIGLLPEDALVNDFSDITSDQLLQRLNDMNTEISGLKNVNKRAFENFKKFNERRKDLAERASELDESKDSIQDLIVKLKQQKVNAVDSTFQKVSENFEAVFERLVPRGTAKLIIHRKNDNANDHDESIDVDMDAESNESQNGKDSEIMYTGVSISVSFNSKQNEQLHVEQLSGGQKTVCAIALILAIQMVDPASFYLFDEIDAALDKQYRTAVATLLKELSKNAQFICTTFRTDMLQVADKFFRVKYENKISTVIEVNREEAIGFIRGSNKFAEV
# partner: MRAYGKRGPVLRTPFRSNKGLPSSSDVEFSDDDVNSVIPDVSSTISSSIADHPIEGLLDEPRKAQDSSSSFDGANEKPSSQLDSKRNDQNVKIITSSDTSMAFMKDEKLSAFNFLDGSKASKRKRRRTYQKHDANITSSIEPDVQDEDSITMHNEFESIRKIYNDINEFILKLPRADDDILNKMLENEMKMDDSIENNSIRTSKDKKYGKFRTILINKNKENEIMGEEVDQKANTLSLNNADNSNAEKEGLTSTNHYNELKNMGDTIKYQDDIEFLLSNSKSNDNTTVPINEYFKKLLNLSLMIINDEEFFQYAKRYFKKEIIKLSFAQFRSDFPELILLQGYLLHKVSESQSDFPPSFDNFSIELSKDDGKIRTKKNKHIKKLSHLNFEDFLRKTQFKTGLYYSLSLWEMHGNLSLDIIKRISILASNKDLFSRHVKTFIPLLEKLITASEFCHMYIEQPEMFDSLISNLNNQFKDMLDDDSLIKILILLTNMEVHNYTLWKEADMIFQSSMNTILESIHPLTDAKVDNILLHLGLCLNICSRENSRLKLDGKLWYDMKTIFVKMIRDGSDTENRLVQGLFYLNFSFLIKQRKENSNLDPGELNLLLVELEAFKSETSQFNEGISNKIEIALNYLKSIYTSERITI
# B2: Protein RAD61 (Saccharomyces cerevisiae), Q99359 (parent)
# chain: B1 partner
# partner: B1 chain
# Variants of: B1
# Conditions: with rad61_yeast RAD61, Q99359
row,Variant,effect of a mutation on the interaction
1,K112N;K113N,decreasing interaction

# Variants of: B1
# Conditions: with rad61_yeast RAD61, Q99359
# Remark: another data set of the same source
row,Variant,effect of a mutation on the interaction
1,L163A;L166A;D168A,decreasing interaction

# Variants of: B1
# Conditions: with rad61_yeast RAD61, Q99359
# Remark: another data set of the same source
row,Variant,effect of a mutation on the interaction
1,L163D;L166D,decreasing interaction

# Variants of: B2
# Conditions: with smc3_yeast SMC3, P47037
row,Variant,effect of a mutation on the interaction
1,N493A;N622A,decreasing interaction

# Variants of: B2
# Conditions: with smc3_yeast SMC3, P47037
# Remark: another data set of the same source
row,Variant,effect of a mutation on the interaction
1,N493A;L577R;N622A,decreasing interaction

# Variants of: B2
# Conditions: with smc3_yeast SMC3, P47037
# Remark: another data set of the same source
row,Variant,effect of a mutation on the interaction
1,N493A;L532E;N622A,decreasing interaction

# Variants of: B2
# Conditions: with smc3_yeast SMC3, P47037
# Remark: another data set of the same source
row,Variant,effect of a mutation on the interaction
1,D271A;D272A,decreasing interaction

# Variants of: B2
# Conditions: with smc3_yeast SMC3, P47037
# Remark: another data set of the same source
row,Variant,effect of a mutation on the interaction
1,K376Q;K377Q;K382Q;K383Q,decreasing interaction
